From patent US20230348600A1 (INHIBRX, published 2023)

Key:
[1] = target: T1, human CD28 (full-length, cell surface) (human, UniProt P10747 19-220); test: flow cytometry, titration of sdAb-hFc on HEK293FS cells transiently transfected with full-length human CD28; Alexa Fluor 647 anti-human IgG
T1 construct: On HEK293FS cells transiently transfected with full-length human CD28, or endogenous on Jurkat cells and primary human T cells; also called hCD28; cluster of differentiation 28
Description: HEK293FS transiently transfected with full-length human CD28 or cynomolgus CD28 were used as CD28-positive cells. Untransfected HEK293FS cells were used as CD28-negative cells. Cells were seeded in 96-well round-bottom plates at 3×10³ cells/well in FACS buffer. The exemplary generated sdAb-hFcs were titrated onto cells and assay plates were incubated for 30 minutes at 4° C. […] Assay plates were incubated for 30 minutes at 4° C. and then cells were washed two times with FACS buffer and resuspended in FACS buffer for analysis using an Intellicyt iQue®.

[2] = target: T1, human CD28 (full-length, cell surface); test: flow cytometry, titration on Jurkat cells (5T4-/PDL1-/CD28+)
[3] = target: T1, human CD28 (full-length, cell surface); test: flow cytometry, titration on Jurkat cells (endogenous CD28)
[4] = target: T1, human CD28 (full-length, cell surface); test: flow cytometry on Jurkat cells and primary T cells enriched from PBMCs (endogenous CD28)

B1: 1G7 CD28 sdAb formatted with human IgG1 Fc (sdAb-hFc) (Fc fusion)
chain: EVQLVQSGGALVQAGGSLRLSCVAPRTIGLISLMGWYRQAPGKQRELVATIIASGRTNYAESVKDRFTISRDNAENKVYLQVNSLKPEDTAVYYCRVNAETAPWSRRGFWGQGTQVTVKPPAPELLGGPSVFLFPPKPKDTLMISRTPEVTCVVVDVSHEDPEVKFNWYVDGVEVHNAKTKPREEQYNSTYRVVSVLTVLHQDWLNGKEYKCKVSNKALPAPIEKTISKAKGQPREPQVYTLPPSRDELTKNQVSLTCLVKGFYPSDIAVEWESNGQPENNYKTTPPVLDSDGSFFLYSKLTVDKSRWQQGNVFSCSVMHEALHNHYTQKSLSLSPGK
notes: also called 1G7 sdAb-IgG1
- binding result [1]: binds

B2: cx8370 (PDL1xCD28 bispecific construct) (bispecific antibody)
chain: EVQLLESGGGEVQPGGSLRLSCAASGGIFAIKPISWYRQAPGKQREWVSTTTSSGATNYAESVKGRFTISRDNAKNTLYLQMSSLRAEDTAVYYCNVFEYWGQGTLVTVKPGGSGGSEVQLVQSGGGLVQTGGSLRLSCAASGRMFSNYAMGWFRQAPGKEREFVAAINYRRDSADYADSVKGRFTISRDNAKNTVYLEMNSLKPEDTAIYYCGFTYAGWASSRRDDYNYWGQGTQVTVKPPAPGGPSVFLFPPKPKDTLMISRTPEVTCVVVDVSHEDPEVKFNWYVDGVEVHNAKTKPREEQYNSTYRVVSVLTVLHQDWLNGKEYKCKVSNKALPAPIEKTISKAKGQPREPQVYTLPPSRDELTKNQVSLTCLVKGFYPSDIAVEWESNGQPENNYKTTPPVLDSDGSFFLYSKLTVDKSRWQQGNVFSCSVMHEALHNHYTQKSLSLSPGK
- binding result [2]: no binding

B3: cx984 (CD28 monospecific construct) (Fc fusion)
chain: EVQLVQSGGGLVQTGGSLRLSCAASGRMFSNYAMGWFRQAPGKEREFVAAINYRRDSADYADSVKGRFTISRDNAKNTVYLEMNSLKPEDTAIYYCGFTYAGWASSRRDDYNYWGQGTQVTVKPPAPGGPSVFLFPPKPKDTLMISRTPEVTCVVVDVSHEDPEVKFNWYVDGVEVHNAKTKPREEQYNSTYRVVSVLTVLHQDWLNGKEYKCKVSNKALPAPIEKTISKAKGQPREPQVYTLPPSRDELTKNQVSLTCLVKGFYPSDIAVEWESNGQPENNYKTTPPVLDSDGSFFLYSKLTVDKSRWQQGNVFSCSVMHEALHNHYTQKSLSLSPGK
notes: Homodimer of two identical chains; also called monospecific, bivalent CD28 sdAb cx984
- binding result [3]: binds

B4: 1C9-xELL (1C9 CD28 sdAb formatted with variant human IgG1 Fc xELL) (Fc fusion)
chain: B3 chain
notes: also called 1C9 sdAb-xELL
- binding result [4]: binds

B5: cx694 (PDL1xCD28 bispecific construct) (bispecific antibody)
chain: EVQLLESGGGEVQPGGSLRLSCAASGGIFAIKPISWYRQAPGKQREWVSTTTSSGATNYAESVKGRFTISRDNAKNTLYLQMSSLRAEDTAVYYCNVFEYWGQGTLVTVKPGGSGGGGSEVQLVQSGGGLVQTGGSLRLSCAASGRMFSNYAMGWFRQAPGKEREFVAAINYRRDSADYADSVKGRFTISRDNAKNTVYLEMNSLKPEDTAIYYCGFTYAGWASSRRDDYNYWGQGTQVTVKPPAPGGPSVFLFPPKPKDTLMISRTPEVTCVVVDVSHEDPEVKFNWYVDGVEVHNAKTKPREEQYNSTYRVVSVLTVLHQDWLNGKEYKCKVSNKALPAPIEKTISKAKGQPREPQVYTLPPSRDELTKNQVSLTCLVKGFYPSDIAVEWESNGQPENNYKTTPPVLDSDGSFFLYSKLTVDKSRWQQGNVFSCSVMHEALHNHYTQKSLSLSPGK
notes: also called PDL1xCD28 bispecific protein
- binding result [2]: no binding

B6: 1C9 CD28 sdAb formatted with human IgG1 Fc (sdAb-hFc) (Fc fusion)
chain: EVQLVQSGGGLVQTGGSLRLSCAASGRMFSNYAMGWFRQAPGKEREFVAAINYRRDSADYADSVKGRFTISRDNAKNTVYLEMNSLKPEDTAIYYCGFTYAGWASSRRDDYNYWGQGTQVTVKPPAPELLGGPSVFLFPPKPKDTLMISRTPEVTCVVVDVSHEDPEVKFNWYVDGVEVHNAKTKPREEQYNSTYRVVSVLTVLHQDWLNGKEYKCKVSNKALPAPIEKTISKAKGQPREPQVYTLPPSRDELTKNQVSLTCLVKGFYPSDIAVEWESNGQPENNYKTTPPVLDSDGSFFLYSKLTVDKSRWQQGNVFSCSVMHEALHNHYTQKSLSLSPGK
notes: Bivalent sdAb-IgG1 homodimer; also called 1C9-IgG1; 1C9 sdAb-IgG1
- binding result [1]: binds

B7: 2F11 CD28 sdAb formatted with human IgG1 Fc (sdAb-hFc) (Fc fusion)
chain: QVQLQQSGGGLVQAGGSLRLSCVASGISFNVVDMDWHRQAPGKERELVAGITRGGATYYADSVKGRFTISRDNAKNSAYLQLANLKPEDTAVYYCNARWPSRYQNYWGQGTQVTVKPPAPELLGGPSVFLFPPKPKDTLMISRTPEVTCVVVDVSHEDPEVKFNWYVDGVEVHNAKTKPREEQYNSTYRVVSVLTVLHQDWLNGKEYKCKVSNKALPAPIEKTISKAKGQPREPQVYTLPPSRDELTKNQVSLTCLVKGFYPSDIAVEWESNGQPENNYKTTPPVLDSDGSFFLYSKLTVDKSRWQQGNVFSCSVMHEALHNHYTQKSLSLSPGK
notes: Bivalent sdAb-IgG1 homodimer; I treated them as the same clone; also called 2F11 sdAb-IgG1
- binding result [1]: binds
